Experimental data reported in publication PMC1931592.

Molecular target: Recombinant human caspase-9 (active) (human) (UniProt P55211)
Test: enzyme inhibition assay (fluorogenic substrate cleavage); one unit of active recombinant human caspase incubated with various concentrations of peptide inhibitor in 100 mM NaCl, 50 mM HEPES, 10 mM DTT, 1 mM EDTA, 10% glycerol, 0.1% CHAPS, pH 7.4, 37°C, 30 min; then 200 μM substrate (Ac-DEVD-MCA for caspases-3 and -7, Ac-IETD-MCA for caspase-8, Ac-LEHD-MCA for caspase-9); apparent Ki = IC50/(1+[S]/Km)

Chain of Recombinant human caspase-9 (active) (human) (P55211 whole entry): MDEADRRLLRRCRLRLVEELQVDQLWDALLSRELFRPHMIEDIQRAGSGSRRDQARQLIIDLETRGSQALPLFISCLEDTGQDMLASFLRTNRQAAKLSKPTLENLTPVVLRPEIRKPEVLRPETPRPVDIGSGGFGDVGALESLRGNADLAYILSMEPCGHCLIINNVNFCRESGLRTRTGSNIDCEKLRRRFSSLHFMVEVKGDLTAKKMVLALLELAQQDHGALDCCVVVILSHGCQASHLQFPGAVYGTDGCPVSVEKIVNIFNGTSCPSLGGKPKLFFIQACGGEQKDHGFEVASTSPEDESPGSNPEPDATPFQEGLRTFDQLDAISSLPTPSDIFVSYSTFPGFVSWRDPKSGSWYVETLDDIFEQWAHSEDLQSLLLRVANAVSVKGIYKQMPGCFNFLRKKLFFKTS

Binder	Ki
Ac-DQTD-aldehyde (SMILES CC(=O)N[C@@H](CC(=O)O)C(=O)N[C@@H](CCC(N)=O)C(=O)N[C@H](C(=O)N[C@H](C=O)CC(=O)O)[C@@H](C)O) [Ac-DQTD-CHO]	0.0145 µM
Ac-DMQD-aldehyde (SMILES CSCC[C@H](NC(=O)[C@H](CC(=O)O)NC(C)=O)C(=O)N[C@@H](CCC(N)=O)C(=O)N[C@H](C=O)CC(=O)O) [Ac-DMQD-CHO]	> 0.2 µM
